Source: patent US20250376498A1, “FUSION PROTEINS COMPRISING AN IMPROVED GLP-1 RECEPTOR AGONIST AND USES THEREOF” (Guangzhou Innogen Pharmaceutical Group Co., Ltd., priority 2022, published 2025)

Experiments:
DIO mice = test: High-fat diet-induced obese (DIO) mice; assay type: in vivo
Procedure: The effects of multiple administrations of YN-011 on glucose tolerance, insulin sensitivity, metabolism, and weight reduction were evaluated in high-fat diet (HFD)-induced obese mice. Male C57BL/6 mice, 5 months old (obtained from commercial sources such as Shanghai Slake Experimental Animals Co., Ltd., under standard housing conditions), were fed with an HFD (60% of total calories from fat, 20% from carbohydrates) for 6 months to establish the diet-induced obesity (DIO) mouse model. The DIO mice (weighing >50 g) were then divided into two groups (5 animals per group), with the experimental group receiving subcutaneous injections of 0.3 mg/kg of YN-011 twice a week (BIW) and the control group receiving phosphate-buffered saline (PBS) injections. The treatment was administered for 4 weeks.

patients with T2DM = test: Phase IIb and III clinical trials of YN-011 in combination with metformin in T2DM; assay type: in vivo; details: 3 mg YN-011 in combination with metformin, 24 weeks
Procedure: The Phase IIb and III clinical trials were multicenter, randomized, double-blind, placebo-controlled studies evaluating the efficacy and safety of YN-011 in patients with T2DM who had inadequate glycemic control on metformin therapy. The Phase IIb trial aimed to explore dose response and evaluate safety (divided into three groups: YN-011 1 mg+metformin, YN-011 3 mg+metformin, and placebo+metformin), to determine the Recommended Phase 3 Dose (RP3D) for the Phase III trial, which aimed at efficacy confirmation . . .
The inclusion criteria for subjects in the Phase IIb and III studies of YN-011 in combination with metformin were primarily the same as those in Implementation Example 10, except for the following point: • Diagnosed with type 2 diabetes for at least 8 weeks (WHO 2000), and met one of the following conditions: • a) Received monotherapy with metformin for >8 weeks with a dose of ≥1500 mg/day or maximum tolerated dose (<1500 mg/day but ≥1000 mg/day) (eligible subjects could directly enter the run-in period). • b) Received monotherapy with metformin for <8 weeks with a dose of ≥1500 mg/day or maximum tolerated dose (<1500 mg/day but ≥1000 mg/day) (eligible subjects needed to enter the metformin dose stabilization period). • c) Received monotherapy with metformin at a dose <1500 mg/day and had not reached the maximum tolerated dose (eligible subjects needed to enter the metformin dose titration period and dose stabilization period).
Please refer to the exclusion criteria in Implementation Example 10 for the primary exclusion criteria for subjects in the Phase IIb and III studies of YN-011 in combination with metformin.
Primary efficacy endpoints included the comparison of YN-011 in combination with metformin versus placebo in combination with metformin in terms of the change in HbA1c levels from baseline after 12 weeks (Phase IIb) or 24 weeks (Phase III) of double-blind administration in patients with T2DM who had inadequate glycemic control on metformin therapy. Please refer to Implementation Example 10 for the secondary efficacy endpoints and safety assessments.

[1] = human, in vivo
obese rhesus monkeys = test: Obese rhesus monkeys, body weight; assay type: in vivo; details: for body weight decrease compared to baseline: at D28
Source text: The obese rhesus monkeys used in this study were sourced from Sichuan Primate Biotechnology Co., Ltd. Fifteen male obese rhesus monkeys, aged 8-21 years (equivalent to 30-60 years in humans), with a body weight of 9.25-15.70 kg, fasting plasma glucose (FPG) levels between 5.50-8.58 mmol/L, and HbA1c levels between 4.5-5.0%, were selected. These monkeys were within the first year of disease onset and had not received any medication. Their liver and kidney functions were normal. The animals were stratified based on FPG levels and randomly assigned to different groups. The selected animals underwent an intravenous glucose tolerance test (IVGTT) to measure blood glucose and insulin levels before the administration of the test compounds. The experimental groups included a placebo group and two YN-011 treatment groups: YN-011 50 μg/kg and YN-011 25 μg/kg, with 5 animals in each group. The treatments were administered via subcutaneous injections (SC) once a week for 4 consecutive weeks, specifically on Day 0 (DO), Day 7 (D7), Day 14 (D14), and Day 21 (D21).

INS-1 cells = test: Assessment of YN-011 activity by inducing cAMP levels in INS-1 cells; assay type: cell-based; details: YN-011 120 nM
Procedure: Natural GLP-1 stimulates insulin secretion from beta cells in a glucose-dependent manner. […] INS-1 cells were serum-starved and glucose-starved, then treated with different amounts of purified YN-011 in the presence of 0, 5, or 20 mM glucose as indicated.
Furthermore, the blank control (SF1) and the two samples with the […] hydroxylation levels (SF4 and SF5) were tested for the biological activity of YN-011 using the method described in Example 1. […] Thus, higher hydroxylation levels tend to increase the biological activity.

[2] = Determination of oxidation levels by LC-MS/MS; assay type: physicochemical
Procedure: Following the protein oxidation measurement method described in Example 2 or by referring to Bettinger et al., the oxidation levels were determined. It was observed that the GLP-1 fusion protein YN-011 of the present invention was not oxidized at position W31, whereas the oxidation level of […] at the same position exceeded 5%. The oxidation occurred at the location indicated by the rectangular box in the structure of W31.

[3] = 0.3 mg/kg sc BIW, 4 weeks, P<0.001

B1: YN-011: GLP-1 fusion protein of SEQ ID NO: 7: GLP-1 (A8G, G22E, R36G), linker peptide and IgG2/Fc domain (C222S, A330S, P331S) (protein)
chain: HGEGTFTSDVSSYLEEQAAKEFIAWLVKGGGSSGAPPPSGGGGSERKSCVECPPCPAPPVAGPSVFLFPPKPKDTLMISRTPEVTCVVVDVSHEDPEVQFNWYVDGVEVHNAKTKPREEQFNSTFRVVSVLTVVHQDWLNGKEYKCKVSNKGLPSSIEKTISKTKGQPREPQVYTLPPSREEMTKNQVSLTCLVKGFYPSDIAVEWESNGQPENNYKTTPPMLDSDGSFFLYSKLTVDKSRWQQGNVFSCSVMHEALHNHYTQKSLSLSPG
UcP1 expression in BAT and epididymal WAT (DIO mice): no effect
Ucp1 expression in inguinal WAT (DIO mice): significantly upregulated
body weight (DIO mice; 0.3 mg/kg sc BIW, 4 weeks): significantly reduced
ectopic lipid accumulation and hepatic triglycerides (DIO mice; 0.3 mg/kg sc BIW, 4 weeks): significantly reduced
weight of other tissues (BAT, inguinal WAT, pancreas, calf muscle) (DIO mice; 0.3 mg/kg sc BIW, 4 weeks): no impact
AST levels (DIO mice; 0.3 mg/kg sc BIW, 4 weeks, Ctrl 145.6±16.8, P<0.05): 72.20±19.29
serum ALT levels (DIO mice; 0.3 mg/kg sc BIW, 4 weeks, Ctrl 153.4±18.7, P<0.01): 34.2±7.7
reduction in non-esterified fatty acids (NEFA) (DIO mice; [3]): 57%
reduction in total cholesterol (TC) (DIO mice; [3]): 30%
reduction in triglycerides (TG) (DIO mice; [3]): 68%
visceral fat, particularly epididymal fat content (DIO mice; 0.3 mg/kg sc BIW, 4 weeks, vs PBS control): significant decrease
blood glucose (DIO mice; after 4 weeks of treatment, glucose fluctuation / IPGTT, P<0.01): significantly reduced
insulin sensitivity (DIO mice; after 4 weeks of treatment, insulin tolerance, P<0.01): improved insulin sensitivity
core body temperature (DIO mice; at room temperature): higher core body temperature
VO2, VCO2 and EE normalized to body weight (DIO mice; during the night): significantly increased
food consumption (DIO mice; multiple administrations vs control): significant decrease
metabolic rate (VO2 and VCO2) and energy expenditure (EE) (DIO mice; not normalized, without statistical significance): increasing trend
incidence of hypoglycemia (<3.9 mmol/L) (patients with T2DM): 1.8%
incidence of nausea (patients with T2DM): 7.0%
reduction in FPG levels (patients with T2DM): 2.42%
reduction in HbA1c levels (patients with T2DM): 1.8%
half-life compared with SUPA-1, Dulaglutide and Semaglutide [1]: significantly longer half-life than Dulaglutide and Semaglutide
plasma concentration steady state [1]: reached a steady state after the fourth dose
median Tmax ([1]; sc): 60 to 84 h
BW (obese rhesus monkeys; 25 μg/kg SC once a week, D 1 baseline value (before administration)): 12.72 kg
BW (obese rhesus monkeys; 25 μg/kg SC once a week, D 7): 12.39 kg
BW (obese rhesus monkeys; 25 μg/kg SC once a week, D 14): 12.16 kg
BW (obese rhesus monkeys; 25 μg/kg SC once a week, D 21): 12.06 kg
BW (obese rhesus monkeys; 25 μg/kg SC once a week, D 28): 11.84 kg
BW (obese rhesus monkeys; 25 μg/kg SC once a week, D 35): 12.05 kg
BW (obese rhesus monkeys; 25 μg/kg SC once a week, D 42): 12.03 kg
BW compared to the placebo group (obese rhesus monkeys; 25 μg/kg, D14 and D21 (P<0.05)): significantly decreased
body weight decrease compared to baseline (obese rhesus monkeys; 25 μg/kg): 6.17%
BW (obese rhesus monkeys; 50 μg/kg SC once a week, D 1 baseline value (before administration)): 10.29 kg
BW (obese rhesus monkeys; 50 μg/kg SC once a week, D 7): 9.85 kg
BW (obese rhesus monkeys; 50 μg/kg SC once a week, D 14): 9.64 kg
BW (obese rhesus monkeys; 50 μg/kg SC once a week, D 21): 9.63 kg
BW (obese rhesus monkeys; 50 μg/kg SC once a week, D 28): 9.52 kg
BW (obese rhesus monkeys; 50 μg/kg SC once a week, D 35): 9.79 kg
BW (obese rhesus monkeys; 50 μg/kg SC once a week, D 42): 9.81 kg
body weight decrease compared to baseline (obese rhesus monkeys; 50 μg/kg): 7.32%
BW compared to the placebo group (obese rhesus monkeys; 50 μg/kg, from D7 to D28 (P<0.05 or P<0.01)): significantly or extremely significantly decreased
cAMP levels (INS-1 cells; 5 mM glucose, comparable to exendin-4): significantly increased
cAMP levels (INS-1 cells; absence of glucose): maintained basal levels of cAMP
oxidation level at position W31 [2]: not oxidized
